The values below come from paper PMC6479064.

For assay [1], the target named is C. reinhardtii axonemal tubulin purified from the combined cyc1-cyc5 fractions (CP/B tubulin) (C. reinhardtii). In words: dynamic microtubule assay by IRM with mean-squared displacement (MSD) analysis; MT ends tracked with FIESTA; quadratic fit to the first 15 s of MSD against time; estimated rate constants of tubulin dimer binding and unbinding at the growing end.

For assay [2] the target is unchanged. In words: dynamic microtubule assay by interference reflection microscopy (IRM); label-free; tubulin at different concentrations in BRB80 with oxygen scavengers, 0.1 mg/ml casein, 1 mM dithiothreitol and 1 mM GTP, 28 °C; extensions grown from TAMRA-labeled GMPCPP-stabilized bovine brain MT seeds held on the coverslip by anti-TAMRA antibodies; constants from linear regression of growth rate against tubulin concentration; tubulin dimer onto the microtubule end.

As to “C. reinhardtii axonemal tubulin purified from the combined cyc1-cyc5 fractions (CP/B tubulin) (complex)”, in assay [1], the koff, minus end (MSD analysis) was 228 s⁻¹; the koff, plus end (MSD analysis) was 341 s⁻¹; the kon, minus end (MSD analysis) is 2.6e+07 M⁻¹ s⁻¹; the kon, plus end (MSD analysis) was 3.86e+07 M⁻¹ s⁻¹. Also, in assay [1], the kon[Tub], minus end (MSD analysis) was 234 s⁻¹ and the kon[Tub], plus end (MSD analysis) was 348 s⁻¹. Further, in assay [2], the koff, minus end worked out at 1.16 s⁻¹; the koff, plus end worked out at 0.785 s⁻¹; the kon, minus end came out at 430000 M⁻¹ s⁻¹; the kon, plus end amounted to 540000 M⁻¹ s⁻¹. Further, in assay [2], the x-intercept (extrapolated tubulin concentration for growth), minus end is 2.58 µM and the x-intercept (extrapolated tubulin concentration for growth), plus end was 1.35 µM.
